One data set deals with Kkay mice. The experiment in a line: Long-term pharmacodynamic study in type 2 diabetes Kkay mice (Example 18). Particulars: subcutaneous, 100 and 300 μg/kg; for Reduction in HbA1c (FIG. 5c): 48 hours after the final administration; for Hypoglycemic effect, blood glucose and AUC (FIGS. 5a-5b): once every 2 days, 16 doses. The class given is in vivo. On the procedure: Compound 5 from Example 5 and Compound 2 from Example 2 were tested on type 2 diabetes Kkay mice. The mice were administered different doses of Compound 5 and Compound 2, at 100 and 300 μg/kg, respectively. The effects of the GLP-1 compounds in the GLP-1 pharmaceutical composition of the present invention on reducing blood glucose levels and HbA1c were measured.
Male Kkay mice, 12-14 weeks old, were housed in suitable cages under barrier conditions with free access to standard food and purified water. The environmental conditions were controlled at a relative humidity of 40%-60% and a temperature of 22° C.-24° C. After an adaptation period of 1-2 weeks, the mice were used for the experiment.
Basal blood glucose levels were assessed on the day of the experiment, and the mice were weighed. Based on random blood glucose and body weight, the diabetic mice were divided into a solvent group or a treatment group. The mice in the treatment group received subcutaneous injections of the GLP-1 compounds at doses of 100 and 300 μg/kg. The solvent consisted of propylene glycol (14 mg/ml), phenol (5.5 mg/ml), and disodium hydrogen phosphate (1.133 mg/ml) at pH 7.4.
Subcutaneous administration was performed at the nape of the neck (50 μl/10 g body weight). The GLP-1 compound in the GLP-1 pharmaceutical composition of the present invention or the solvent were administered at approximately 10:00 am (time 0), once every 2 days for a total of 16 doses. Blood glucose levels in the mice were evaluated at 3 hours, 6 hours, 1 day, and 2 days after the initial administration. HbA1c was measured 48 hours after the final administration using EDTA anticoagulant.

The conditions of data set [1]: oral semaglutide tablets (RYBELSUS) with SNAC, clinical studies; cited from earlier work.
Data set [2] can be described thus: Chemical stability: related substances by HPLC after storage (Example 17). In kind it is physicochemical. On the procedure:
The content of related impurities was determined using high-performance liquid chromatography (HPLC) on a Waters Kromasil 100-3.5-C8 (4.6*250 mm) column. The column temperature was set at 35° C., and the sample chamber temperature was set at 5° C. The elution was performed at a flow rate of 1.0 ml/min. The eluent consisted of the following components: • Phase A: 90 mM potassium dihydrogen phosphate and 10% acetonitrile (v/v), pH 2.4 • Phase B: 75% acetonitrile (v/v)
The gradient was as follows: linear change of 75%/25% A/B to 55%/45% A/B from 0 to 5 minutes, linear change from 5 to 12 minutes to 50%/50% A/B, linear change from 12 to 42 minutes to 40%/60% A/B, linear change from 42 to 60 minutes to 10%/90% A/B, linear change from 60 to 61 minutes to 75%/25% A/B, and steady gradient of 75%/25% A/B from 61 to 70 minutes.
Detection wavelength was set at 214 nm, flow rate at 1.0 ml/min, and injection volume at 15 μl.

The source of these data is US20250276043A1, “Pharmaceutical Composition Containing GLP-1 Compound” (Gan & Lee Pharmaceuticals Co., Ltd., priority 2021, published 2025).

Regarding “N-ε^26-[2-(2-[2-(4-[19-carboxynonadecanoylamino]-4(S) -carboxybutanoylamino)ethoxy]ethoxy)acetyl][Gly8, Arg34]GLP-1-(7-37) peptide [Compound 2]”, in the data set with Kkay mice, the “Reduction in HbA1c (FIG. 5c)” value is reported as “significant reduction in HbA1c”; the “Hypoglycemic effect, blood glucose and AUC (FIGS. 5a-5b)” value is reported as “significant hypoglycemic effects”.

As for semaglutide, in data set [1], the Bioavailability result was “around 1%”.

As for “N-ε^26-[2-(2-[2-(2-[2-(2-[4-(21-carboxyheneicosanoylamino)-4(S) -carboxybutanoylamino]ethoxy)ethoxy]acetylamino)ethoxy]ethoxy)acetyl][Gly8, Arg34]GLP-1-(7-37) peptide [Compound 5]”, the “Reduction in HbA1c (FIG. 5c)” value in the data set on Kkay mice is “significant reduction in HbA1c”. Further, in the data set with Kkay mice, the “Hypoglycemic effect, blood glucose and AUC (FIGS. 5a-5b)” value is on record as “significant hypoglycemic effects”. Besides, the “Maximum individual impurity %” value was found to be 0.97% in data set [2] (25° C./60% RH, 15 month); 0.76% in data set [2] (30° C./65% RH, 1 month); 1.03% in data set [2] (30° C./65% RH, 2 month); 0.93% in data set [2] (30° C./65% RH, 3 month); 0.73% in data set [2] (30° C./65% RH, time 0). Further, the “Purity of compound 5 %” value in data set [2] (25° C./60% RH, 15 month) was 96.14%; in data set [2] (30° C./65% RH, 1 month), 96.85%; in data set [2] (30° C./65% RH, 2 month) it was 96.67%; in data set [2] (30° C./65% RH, 3 month), 95.19%; in data set [2] (30° C./65% RH, time 0), 96.5%. Moreover, the Total impurities % in data set [2] (25° C./60% RH, 15 month) was found to be 3.86%; in data set [2] (30° C./65% RH, 1 month), 3.15%; in data set [2] (30° C./65% RH, 2 month) it was 3.33%; in data set [2] (30° C./65% RH, 3 month) it was 4.81%; in data set [2] (30° C./65% RH, time 0), 3.5%.
